± gives the uncertainty stated by the source.

This data set is described as follows: amyloid nucleation score (Sup35N fusion, yeast selection) (log enrichment); library NNK3; higher = more nucleation; inactive = no reads after selection. A digest of the protocol: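 Three technical output replicates were used for random libraries. Psi-negative yeast expressing peptides of 20 random codons fused to Sup35N were induced with 100 μM copper sulfate for 24 hours and grown 7 days at 30°C on medium lacking adenine and uracil, and input and output plasmid inserts were Illumina-sequenced, excluding sequences with under 100 input reads. The nucleation score is the DiMSum log enrichment of output over input reads, centred on the mode score of non-aggregating sequences.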
Consider SIRISLEISGYSELSITFSC, for which the amyloid nucleation score entry is “inactive”.

LCLSSCWYTRGH: the amyloid nucleation score entry is “inactive”.

For YSYNKFAVEVYLSSLHPEMM, the amyloid nucleation score entry was “inactive”.

As for HITNGRGWRHGRVWSSIWFF, the amyloid nucleation score result was “inactive”.

Turning to VFEDNDLCELINDVILEHHR, the amyloid nucleation score result is “inactive”.

As for LARGDYVMKDMVLAHINDLC, the amyloid nucleation score entry is “inactive”.

CTDIICMIRFVVLDMRGAN: the amyloid nucleation score came out at 0.981 ± 0.12.

The substance EINFMKRASRVRLKQYNQ gave an amyloid nucleation score of 0.64 ± 0.26.

For the substance GRHSALRASFGL, the amyloid nucleation score result is “inactive”.

With YQKFNKLRLRNLPHLYDFVL, the amyloid nucleation score result was “inactive”.

Turning to LFRPSL, the amyloid nucleation score entry was “inactive”.

With TNVCLRRFLVTSLNGWVDGN, the amyloid nucleation score entry is “inactive”.

As for LLSPEEGGLKSECRRWSGAL, the amyloid nucleation score result was “inactive”.

Regarding NLLLFF, the amyloid nucleation score turned out to be 1.82 ± 0.096.

In the case of YMTCTR, the amyloid nucleation score result was “inactive”.

As for TLPKVMFVIQNYGFFSGFTL, the amyloid nucleation score is 1.32 ± 0.079.

Consider TVSYRTTIWWRSINFNRRAL, for which the amyloid nucleation score entry is “inactive”.

Take TLLPAVQIWHDIKHSTRTSW: the amyloid nucleation score result is “inactive”.

As to LQANAI, the amyloid nucleation score entry was “inactive”.

As for SDLYDVVEPVAMVTCDSKEK, the amyloid nucleation score entry is “inactive”.

Consider VVTSRCLRKKLFLDLSVCIT, for which the amyloid nucleation score entry was “inactive”.

Take TGQYMYKWSGLRWSYGGTFA: the amyloid nucleation score entry was “inactive”.

For the substance RSSDYNRLHRSFSCNG, the amyloid nucleation score entry is “inactive”.

GKLTWIYIGIARPHEKMWLT: the amyloid nucleation score entry was “inactive”.

As for THSPKISRFLDNSRMRQFFT, the amyloid nucleation score entry is “inactive”.

With VNLDTSSGKT, the amyloid nucleation score entry was “inactive”.

Regarding DPSPGYLLSY, the amyloid nucleation score entry is “inactive”.

Consider RHISRRRLREVGVCRLKVML, for which the amyloid nucleation score entry was “inactive”.

In the case of VIVKKLY, the amyloid nucleation score entry is “inactive”.

As for HVARFMLNRYLLFGEPYMLK, the amyloid nucleation score result is “inactive”.

Turning to RYGTVDCIYCFMDLGVRDTG, the amyloid nucleation score worked out at 2.46 ± 0.081.

As to VWYVSLTMIWLGSMALGFAR, the amyloid nucleation score entry is “inactive”.

With FVYDMHKHQIALRQVSSCEG, the amyloid nucleation score result was “inactive”.

The substance YSNGASLVWLVNVKK had an amyloid nucleation score of 2.19 ± 0.083.

As to LIRPDCEDTRFCIRSWDCQG, the amyloid nucleation score entry was “inactive”.

As to SFKTF, the amyloid nucleation score entry was “inactive”.

ILRWRHMVVWSPNVHGVGAF: the amyloid nucleation score entry is “inactive”.

Turning to TAREMYSRKSRILRVILILS, the amyloid nucleation score result is “inactive”.

In the case of AWVLCVKERFRSAGCECTGF, the amyloid nucleation score result was “inactive”.

As to MLPFTLMQPNVLFWMIDWED, the amyloid nucleation score entry was “inactive”.

Regarding SLIFQDGGDNVNDLKVCVDY, the amyloid nucleation score result was “inactive”.

In the case of LSLSM, the amyloid nucleation score result was “inactive”.

For YTLAC, the amyloid nucleation score entry is “inactive”.

For CVEVWLPYFFLSMS, the amyloid nucleation score result is “inactive”.

Turning to YFGFYSLWYKYYVTSISRSL, the amyloid nucleation score result was “inactive”.

As to RALTLADASGMRGINSGTMK, the amyloid nucleation score entry was “inactive”.

On to TRSNRRHVRVT, for which the amyloid nucleation score result was “inactive”.

On to GFDLEVNTGNVVGFEDSAGQ, for which the amyloid nucleation score entry was “inactive”.

For VKNIGS, the amyloid nucleation score result is “inactive”.

On to TPQPLIIAQIVASPSEKKLL, for which the amyloid nucleation score entry is “inactive”.

On to WTSDSRCYMNLKRCRGYTLF, for which the amyloid nucleation score result was “inactive”.

For RQADMYRYLFWGRWTVWCSW, the amyloid nucleation score result is “inactive”.

For the substance IACFMI, the amyloid nucleation score result is “inactive”.

Turning to IPSWREWVYGVINWRAGSSP, the amyloid nucleation score result was “inactive”.
